Experimental data reported in patent US20250388664A1.

Legend:
Aβ1-40 monomer = Aβ1-40 monomer (UniProt P05067); test: inhibition ELISA: antibody at a fixed concentration pre-incubated with titrated Aβ1-40 monomer in solution, then on an AβpE3-40 coat; the x axis is the Aβ1-40 concentration
AβpE11-40 monomer = AβpE11-40 monomer (UniProt P05067); test: inhibition ELISA: antibody at a fixed concentration pre-incubated with titrated AβpE11-40 monomer in solution, then on an AβpE3-40 coat; the x axis is the AβpE11-40 concentration
AβpE11-40 monomer, sequence (P05067 682-711): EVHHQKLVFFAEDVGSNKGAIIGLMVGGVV

Aβ1-40 monomer, sequence (P05067 672-711): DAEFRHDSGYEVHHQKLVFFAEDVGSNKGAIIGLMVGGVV

IC50 (read off the curve) (Aβ1-40 monomer): 20 nM
IC50 (read off the curve) (AβpE11-40 monomer): 20 nM
Substance: 4G8 (antibody)
